# Laboratory results published in paper PMC10953399, “Escherichia coli DNA repair helicase Lhr is also a uracil‐DNA glycosylase”.
# T1: Lhr-CTD (Escherichia coli MG1655, UniProt P30015 876-1538)
# T1 sequence: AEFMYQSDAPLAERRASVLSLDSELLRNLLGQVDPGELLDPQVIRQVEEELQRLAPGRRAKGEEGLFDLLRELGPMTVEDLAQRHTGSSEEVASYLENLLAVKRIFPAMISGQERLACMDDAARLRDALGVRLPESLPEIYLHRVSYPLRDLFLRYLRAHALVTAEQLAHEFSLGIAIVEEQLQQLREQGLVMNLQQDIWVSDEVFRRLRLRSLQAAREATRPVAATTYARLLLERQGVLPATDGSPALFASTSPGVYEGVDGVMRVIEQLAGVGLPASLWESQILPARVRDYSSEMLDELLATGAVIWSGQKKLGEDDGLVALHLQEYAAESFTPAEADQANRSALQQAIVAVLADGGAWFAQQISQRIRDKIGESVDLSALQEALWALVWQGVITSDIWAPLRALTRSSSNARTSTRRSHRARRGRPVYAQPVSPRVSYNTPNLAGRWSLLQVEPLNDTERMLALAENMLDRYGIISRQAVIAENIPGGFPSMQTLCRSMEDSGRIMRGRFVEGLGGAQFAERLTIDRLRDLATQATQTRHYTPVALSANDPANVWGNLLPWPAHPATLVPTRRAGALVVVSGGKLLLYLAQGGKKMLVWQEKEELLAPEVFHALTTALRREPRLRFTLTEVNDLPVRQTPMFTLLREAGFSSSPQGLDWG
# Legend:
# Lhr = Lhr (Escherichia coli MG1655, UniProt P30015 1-1538); test: EMSA; 5 mM EDTA; 12.5-200 nM protein, 12.5 nM DNA; 20 mM Tris pH 7.5, 10% glycerol, 100 ug/mL BSA, 25 mM DTT, 5 mM EDTA, 12.5 nM Cy5-DNA; 37 C 20 min then ice 10 min; 5% acrylamide TBE gel; conditions: protein: recombinant; tags: His6; label: 5' Cy5; single strand
# Lhr-CTD = molecular target: T1, Lhr-CTD; test: EMSA; 5 mM EDTA; 12.5-200 nM protein, 12.5 nM DNA; no stable complex; 20 mM Tris pH 7.5, 10% glycerol, 100 ug/mL BSA, 25 mM DTT, 5 mM EDTA, 12.5 nM Cy5-DNA; 37 C 20 min then ice 10 min; 5% acrylamide TBE gel; conditions: protein: recombinant; tags: pNH-TrxT vector (GU269914.1); label: 5' Cy5; single strand
binder,measurement,setting,value
TCGGATCCTCTAGACAGCTCCATGATCACTGGCACTGGTAGAATTCGGC (ssDNA) [Cy5-ssDNA (EMSA)],binding result,Lhr,binds
same,binding result,Lhr-CTD,no binding
